In publication doi:10.1101/276808 (bioRxiv, 2018):
Values joined by “and” are separate entries in the source; they are usually repeats but may differ in a detail not shown here. Identical values can stand only once.

Target: the molecule itself
Test: native gel or EMSA

B1: Lrp (natural protein, Escherichia coli, UniProt P0ACJ0 1-164, looked up)
chain: MVDSKKRPGKDLDRIDRNILNELQKDGRISNVELSKRVGLSPTPCLERVRRLERQGFIQGYTALLNPHYLDASLLVFVEITLNRGAPDVFEQFNTAVQKLEEIQECHLVSGDFDYLLKTRVPDMSAYRKLLGETLLRLPGVNDTRTYVVMEEVKQSNRLVIKTR
stoichiometry N: 8 and 16
